Results: PMC9680732 (Biophysical Reports, 2021)

Biological target: linear triubiquitin (UniProt P0CG48)
Test: BLI

Chain of linear triubiquitin (P0CG48 1-228): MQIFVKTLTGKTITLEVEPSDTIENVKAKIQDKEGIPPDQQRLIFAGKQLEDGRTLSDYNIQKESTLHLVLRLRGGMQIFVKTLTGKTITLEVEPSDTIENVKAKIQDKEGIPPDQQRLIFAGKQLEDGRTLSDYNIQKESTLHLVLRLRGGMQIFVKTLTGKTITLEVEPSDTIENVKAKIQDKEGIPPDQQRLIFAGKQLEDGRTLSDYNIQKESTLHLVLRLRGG

binding result: binds
Binder: PKQRCRAPACDHFGNAKCNGYCNECFQFKQMYG (domain or fragment, biotin (singly biotinylated)) [singly biotinylated A20 zinc finger 7 (ZnF7: P758-G790)]
